This passage reports protein production results from a protein production outcome set (Wang et al. 2014).

This series can be described thus: label from the status in PepcDB records.
For the sequence “MKRWQMEWLLVSVALVWGANYTIGKYGVAFMSSIQFNSLRFLVASPVLLLITFLMERSLRIERKDWLRLVAVGIVGTTMYQTMFMLSVKYTSATNASLLIAMSPIFTGILAVLHKQERFSMKVQIGSIVAFIGAAFVLLTGHTGGATYEYAWLGNIIGLVAAIAWGWYPILAQPLITKYSAMRVTSWSTLIGIVPLVIYCLFNVNTLTWPVDTPSWGSLAYSIVFATIFGLAMWYVGISQIGSTKVMVYMYLVPLFAVIFAAVIIGEQINMMQLVGGLIIFIGLYVVKKGGMKKPALNLKKVS”, the protein production result was “failed”.
Under “MKILVAFDGSDGAQKALGFAINFSKDCERMIVLYVSRDIISESGRLTYIPDTALERRDSEDEAILARARSILASSNIPFEIIKKNSDGVDVSKVIADTAKELECNMIITGTRKLRGLSKYLLGSVSAGIIAISNVPVIVVP” stands “failed”; under “MNRKFTARGPKRIEWAPHSCYHRKAHGFRPGTLSARHRSVRTPRSIVGIRTPHPHPNPTDHDFATMTIRQSALFALALGTLGLLALSGCSAGNPNMSAAEDAMEQERYERALANVDSAIAQDSANAQAYAMKARILRQMADSTAPPEAYKQRYRQARQAEEKAIKFDPGRRSDIKNQRELAFIQEFQKGADAFNRAQQSSQKSDYLRAAAYFGAAGAIRPDSTGPIRNEAFARLQAARLEGGDQGMQEMSNVIPILERYLKKEDEPEKDVYSILSQLYRQGDQPERALEVTERALDDLSSRPTHFRIQGTRGLSYTGTIEAGGTSRQVEGTTPDRIELSTSDGMVTGTFRKQDGGKKQTKGRLQVGLYTQGTQVANSRTTALEEITISEDLSSVTPLAELQNQRLSALNSTGNTEKAMQAYRQQIERNPENARYRYNYGSLLLNSDRYDEAIEQLSEAVKLDSDDPKKQYNLGAAYLNKGVVLQDSLVSVRDSVMAQNRKPTQEEAQMIEDLDEQRLQFFQNAIPPLERARQLSGANGRYRQNACSALLQAYVQTEQTDKAEDVKQCAGAGGNTSGGSGGR”, “failed”; under “MSLTEPRIVATYHIASDAERIEQRALALAIEQSVECPLEAIGDPAIVANIVGRVEDVAELQPGRYAVRIGLAAATAPAEPGQLLNMLFGNSSIQPDIALADVELPAHYLTAFGGPRVGLAGIRTLTGAQSRALTASALKPQGLSPAALASIAHQLALGGVDLIKDDHGLADQAFSPFAERAAAVGKAVREANAARGGRTLYAPNISGTLDDMRRQLGVIRDEGIGAVLVAPMIVGVSNFHAIVKEAAGLVVVAHPAMAGAAKIAAPLLLGRLFRLFGADATVFPNYGGRFAYSTASCLALAQAARDPFGKLNACIPTPAGGIMLQRVNELLRFYGQDVMLLIGGSLLASRERLTEQASRFVNKVADYGQREGHHHHHH”, “not failed”.
Under “MKKRILSAVLVSGVTLSAAASVHAEDYDSQIAATNNAISNLASQQEAAQAQVATIQSQVSTLRTQKTELEAKNAELEKVSADLESEIQELSSKIVARQDSLAKQARSAQQNNTATSYINSILNSKSISEAITRITAISKVVTANNDLLTKQESDQKELAAKQEENQAAINTIAANKSELETTEAGLTTQQAELEAAQVTLAAELATAQNEKTSLVSAKSTAESVAASTAASVAQSQAIAESEATAQVVASSEAATSVASSEVAATSEAVAQPSETPVSETSTASEAAQEPASSETSEVQPESAAPAVSEAPASVAPVATSEAAPATSEAPASVAPVATSEAAPAVSEAPAPAAETHKVSAASTPNTYPVGQCTWGVKSLAPWAGNNWGNAKNWIASAQAAGHSVGTTPVAGAIAVWPNDGGGYGHVAYVTSASGANSIQVMESNYAGNMSISNYRGTFDPTSSAHGGSVFYIYPLEHHHHHH” stands “not failed”; under “MKLESNAFEKAFSSDPAPLGLAGFAFTTFLLSFINAGLIPASGVNVVVPLAIAYGGLAQLITGSWEMRRGNNFGFTAFTSYGSFWIFYALMVILADLHIINALPAVAVGWALILWGIFTLYMWGGAMMASMSLNLTFLFLWLTFVVLGLGAIYSSVALTHAGGYLGILSAFFAAYTSFAIIINSMKPGTIPVGPGMFHKKAGK”, “failed”.
Regarding “MLPGVGVFGTSLTARVIIPLLKDEGFAVKALWGRTQEEAEELAKEMSVPFYTSRIDEVLLHQDVDLVCINLPPPLTRQIAVKTLGIGKNVICDRTATPLDAFRMTSAAHYYPKLMSIMGNVLRFLPAFVRMKQLIEEGYVGEPLVCEVQVHGGSLLGKKYNWSCDDLMGGGGLHSVGTYIIDLLTFLTGQKAVKVHGLLKTFVKQTDHIKGIRQITSDDFCTFQMVLEGGVCCTVTLNFNVPGEFKQDVTVVGSAGRLLAVGTDLYGQRNSAPEQELLVQDATPVSNSLLPEKAFSDIPSPYLRGTIKMMQAVRQAFQDQDDRRTWDGRPLTMAATFDDCLYALCVVDTIKRSSQTGEWQNIAIMTEEPELSPAYLISEAMRRSRMSLYC”, the protein production entry is given as “failed”.
“MFRPQDDFTYLMPVHFGGGKFDPETLVTQKATALSLSFETERDLLENYIPEGFELLAPEVQVAFNKFTEINWLHGGQYNLINVAAPVRFHGKKDELDGAYTLVVWENKTAPILGGREQTGIPKIYADIEDLHIVRPHFATTVSYEGNTFLNMDFEATGSITGRDLDALKSQFLTMNTLGWRYIPKVGAPGAELSQFVLYPQGMEVETAEVGKGSLKWTELTPMQSPAQYYIVNSLASLPIKRVTQAVLVEGRAILRAMGARVIE”: the protein production entry is given as “not failed”.
“MDIKELKEIATKSREKQTKIRIRCCSAAGCLSSEGETVKKNLTTAIAAAGLEEKVEVCGVGCMKFCGRGPLVAVDDRNQLYEFVTPDQVGDIVKKLQKPDAVAETGLISGDPHHPFY”: the protein production result is listed as “failed”.
In the case of “MPVNQYQQEVGETLEHFAVGQMPDVKFLEGRYCSVEHIDARKHLNDIIDFYWKNAVPSDWTYMFDQPFETAEAVQERLQDYEKSENPYFFAIRDKETDKVLGTFSLMRIDPKNRVLEMGRVIYAPALQKTSAATEAQYLVMNYVFENLGYRRYEWKCDHLNQSSGNAAKRLGFTYEGTFRKHVVYKGRTRDTDWFSVIDQDWPKLKKRFENWLSPKNFDKTGQQIKALKDC” it was “failed”; in that of “MFMKKWIGIDLGTTNTVASYFDVSSKIILNERGERITPSIVSFSDKDVLVGSAAKNQILVNPQKTFYNFKTNIGSNNFYKVDGEFYKAEYISAHLLASVKRNAEKFLDEEIENAVITVPAYFSEIQRRCVVEAANFAGLNCKAILNEPTAAAIAYAFERQIDGIFLIYDLGGGTFDVTLMEKQGDTYTVLSVKGQSRLGGNDFNKIIEKYVLDSFKNKYPDFNLEDIFLLEQLRERIEEGKKNLSVMEEVDITLLFLDGKHLNYNLKRDEFNSMISEYIDKTIQLSMECIADSGVDISSVSKIILSGGSTRIPLIEKVLKESFPSATILDALNQDEVVAIGAGIHAFSLSRNDSVIKFKDVTPYSLGLEIKDNEFFTLIKRNTALPISRSKLFTTTNDYQDEIEIHILQGEYKKASLNYSIGRFSFGNIQKALKGIPKIEVLFTLNESGILSVNAKDLETNSSNFIEIKITSSSDNVAKESLSNTFTSIID”, “failed”.
Consider “MGKIHELSSVLADQIAAGEVVERPASVVKELVENAVDAHATQVDILVQESGVQSIRVIDDGDGIDDAEVLTAFKRHATSKITSREDLFRVHSLGFRGEALPSIASVADVVMNTSTGATGTSIHYRGGKLLQQSPAPLRQGTDITVTDLFFNTPARLKYLKSPQTELANILDVVNRIALSYPAVAFRLVHNAKELLKTAGRGDLQQVIAGIYGVQNARKMVAIQGSTTDFKLSGFVALPELTRASRQYITVLINGRAIKNQQLTKAVIKGYGSKLMVGRYPIAVIALTMDPLLVDVNVHPTKQEVRLSKEPELAKLVSTTITDRLVDVNLIPSALTNLGSHRREHLNTDQLAMDLNAVSSQYQVADKTTPASTEQFAASLAAATMQPSSATTMVSTTSAQPSAVNRAAVSAVVPSESAASSANQPIMISHRDELTATPVQAFDQRYQSESGALPFGETAEPLETSTAASAPTSEAPDTERFPQLRYLGQMHGTYLLAEADDGMYILDQHAAQERINYEYYRQAIGEVSADQQNLLVPIILDYPTSDVLKIKEKLPLLAELGIHLESFGGNSFIVHAHPTWFKAGQEEDTIREMIDWLLQDDKLTVAQFREKSAIMMSCKRAIKANHHLDDQQARALLAKLPTCENPFNCPHGRPVTVHFTNSDMERMFKRIQDSHEARD”, for which the protein production entry is given as “failed”.
